Data published in paper PMC9330781, “Isolated Variable Domains of an Antibody Can Assemble on Blood Coagulation Factor VIII into a Functional Fv-like Complex” (International Journal of Molecular Sciences, 2022).

B4: Recombinant B-domain deleted FVIII (BDD) (natural protein, human, UniProt P00451 20-2351, looked up)
chain 1: ATRRYYLGAVELSWDYMQSDLGELPVDARFPPRVPKSFPFNTSVVYKKTLFVEFTDHLFNIAKPRPPWMGLLGPTIQAEVYDTVVITLKNMASHPVSLHAVGVSYWKASEGAEYDDQTSQREKEDDKVFPGGSHTYVWQVLKENGPMASDPLCLTYSYLSHVDLVKDLNSGLIGALLVCREGSLAKEKTQTLHKFILLFAVFDEGKSWHSETKNSLMQDRDAASARAWPKMHTVNGYVNRSLPGLIGCHRKSVYWHVIGMGTTPEVHSIFLEGHTFLVRNHRQASLEISPITFLTAQTLLMDLGQFLLFCHISSHQHDGMEAYVKVDSCPEEPQLRMKNNEEAEDYDDDLTDSEMDVVRFDDDNSPSFIQIRSVAKKHPKTWVHYIAAEEEDWDYAPLVLAPDDRSYKSQYLNNGPQRIGRKYKKVRFMAYTDETFKTREAIQHESGILGPLLYGEVGDTLLIIFKNQASRPYNIYPHGITDVRPLYSRRLPKGVKHLKDFPILPGEIFKYKWTVTVEDGPTKSDPRCLTRYYSSFVNMERDLASGLIGPLLICYKESVDQRGNQIMSDKRNVILFSVFDENRSWYLTENIQRFLPNPAGVQLEDPEFQASNIMHSINGYVFDSLQLSVCLHEVAYWYILSIGAQTDFLSVFFSGYTFKHKMVYEDTLTLFPFSGETVFMSMENPGLWILGCHNSDFRNRGMTALLKVSSCDKNTGDYYEDSYEDISAYLLSKNNAIEPR
chain 2: EITRTTLQSDQEEIDYDDTISVEMKKEDFDIYDEDENQSPRSFQKKTRHYFIAAVERLWDYGMSSSPHVLRNRAQSGSVPQFKKVVFQEFTDGSFTQPLYRGELNEHLGLLGPYIRAEVEDNIMVTFRNQASRPYSFYSSLISYEEDQRQGAEPRKNFVKPNETKTYFWKVQHHMAPTKDEFDCKAWAYFSDVDLEKDVHSGLIGPLLVCHTNTLNPAHGRQVTVQEFALFFTIFDETKSWYFTENMERNCRAPCNIQMEDPTFKENYRFHAINGYIMDTLPGLVMAQDQRIRWYLLSMGSNENIHSIHFSGHVFTVRKKEEYKMALYNLYPGVFETVEMLPSKAGIWRVECLIGEHLHAGMSTLFLVYSNKCQTPLGMASGHIRDFQITASGQYGQWAPKLARLHYSGSINAWSTKEPFSWIKVDLLAPMIIHGIKTQGARQKFSSLYISQFIIMYSLDGKKWQTYRGNSTGTLMVFFGNVDSSGIKHNIFNPPIIARYIRLHPTHYSIRSTLRMELMGCDLNSCSMPLGMESKAISDAQITASSYFTNMFATWSPSKARLHLQGRSNAWRPQVNNPKEWLQVDFQKTMKVTGVTTQGVKSLLTSMYVKEFLISSSQDGHQWTLFFQNGKVKVFQGNQDSFTPVVNSLDPPLLTRYLRIHPQSWVHQIALRMEVLGCEAQDLY
notes: coagulation factor VIII, human, B-domain deleted; also called BDD FVIII; source: bought: FVIII pharmaceutical product, ASD Healthcare, AmerisourceBergen

Columns and labels:
Details in all cases: both partners purified
[1] = biological target: T1, Recombinant blood coagulation factor VIII (human); assay: SPR; each scFv variant covalently immobilised (amine coupling, CM5, 250-350 RU); FVIII injected at 3.125, 12.5, 50 and 200 nM; 10 mM HEPES, 150 mM NaCl, 5 mM CaCl2, 0.005% Polysorbate-20; 25 °C; 1:1 (Langmuir) binding model; Biacore T200
T1 construct: coagulation factor VIII, human, heavy chain with the domain structure A1-A2-B; coagulation factor VIII, human, light chain with the domain structure A3-C1-C2; Written here as one chain entry with two parts would be wrong: see the two pieces as heavy chain and light chain of the heterodimer; also called FVIII; source: bought: FVIII pharmaceutical product, ASD Healthcare, AmerisourceBergen

[2] = biological target: B4; assay: pull-down; FVIII (BDD, ~2 µg) incubated with the scFv or its fragments (1- to 5-fold molar excess) in HBS-P/Ca buffer for 1 h at room temperature, captured on VIIISelect (FVIII-affinity) resin, washed, eluted, SDS-PAGE with silver staining
[3] = biological target: T2, Isolated VH subunit of thrombin-cleaved iKM33-v1; assay: as above
T2 construct: as the VH of m2; the stretch of the linker of m2 that stays on VH after thrombin cleavage; About 13 kDa; source: thrombin cleavage of the purified scFv (Sf9); supernatant after Ni-NTA agarose, buffer exchanged and concentrated

B1: scFv iKM33-v1 (thrombin-cleavable variant of iKM33) (scFv, V domains shown)
VH: EVQLVESGGGVVQPGRSLRLSCVDSGLTFSSYGMHWVRQAPGAGLEWVAVISYDGNDKYYADSVKGRFAISRDNAKNTLYLQMNSLTIEDTAVYYCAKDLIESNIAEAFWGQGTLVTVSS
VL: DIQMTQSPSSLSASVGDTVTIACRASRDIRNDLAWYQQKPGKAPKLLIYATSRLQSGVPSRFSGSGSFTDFTLTINSLQPDDSATYYCLQDSDYPLTFGGGTKVDIK
notes: as the VH of m1; linker with a thrombin cleavage site made after the FVIII Arg740 site, 15 or 17 residues long; as the VL of m1; Differs from m1 only in the linker; also called intact scFv; source: Sf9 cells, baculovirus, purified from conditioned media (HisTrap Excel, Superdex 75)
binding result [1]: binds | binding result [2]: binds

B2: scFv iKM33-v3 (thrombin-cleavable variant of iKM33) (scFv, V domains shown)
VH: EVQLVESGGGVVQPGRSLRLSCVDSGLTFSSYGMHWVRQAPGAGLEWVAVISYDGNDKYYADSVKGRFAISRDNAKNTLYLQMNSLTIEDTAVYYCAKDLIESNIAEAFWGQGTLVTVSS
VL: DIQMTQSPSSLSASVGDTVTIACRASRDIRNDLAWYQQKPGKAPKLLIYATSRLQSGVPSRFSGSGSFTDFTLTINSLQPDDSATYYCLQDSDYPLTFGGGTKVDIK
notes: as the VH of m1; linker with a thrombin cleavage site made after the FVIII Arg372 site; as the VL of m1; Differs from m1 only in the linker; source: Sf9 cells, baculovirus, purified from conditioned media (HisTrap Excel, Superdex 75)
binding result [1]: binds

B3: scFv iKM33-v2 (thrombin-cleavable variant of iKM33) (scFv, V domains shown)
VH: EVQLVESGGGVVQPGRSLRLSCVDSGLTFSSYGMHWVRQAPGAGLEWVAVISYDGNDKYYADSVKGRFAISRDNAKNTLYLQMNSLTIEDTAVYYCAKDLIESNIAEAFWGQGTLVTVSS
VL: DIQMTQSPSSLSASVGDTVTIACRASRDIRNDLAWYQQKPGKAPKLLIYATSRLQSGVPSRFSGSGSFTDFTLTINSLQPDDSATYYCLQDSDYPLTFGGGTKVDIK
notes: as the VH of m1; linker with a thrombin cleavage site made after the FVIII Arg740 site, 15 or 17 residues long; as the VL of m1; Differs from m1 only in the linker; also called non-cleaved scFv; source: Sf9 cells, baculovirus, purified from conditioned media (HisTrap Excel, Superdex 75)
binding result [1]: binds

B4
binding result [3]: binds
